Laboratory results published in patent US20050244864A1, “Development and use of fluorescent probes of unbound analytes” (priority 2004, published 2005).

B1: VQQ: probe L72V R106Q R126Q of rI-FABP (protein, UniProt P02693 2-132, looked up, variant L72V R106Q R126Q)
Fatty acid-binding protein, …: AFDGTWKVDRNENYEKFMEKMGINVVKRKLGAHDNLKLTITQEGNKFTVKESSNFRNIDVVFELGVDFAYSVADGTELTGTWTMEGNKLVGKFKRVDNGKELIAVQEISGNELIQTYTYEGVEAKQIFKKE
modifications: fluorescent label
notes: probe L72V R106Q R126Q of rI-FABP
B2: 40F2, L72A (protein, UniProt P02693 2-132, looked up, variant I40F L72A)
Fatty acid-binding protein, …: AFDGTWKVDRNENYEKFMEKMGINVVKRKLGAHDNLKLTFTQEGNKFTVKESSNFRNIDVVFELGVDFAYSAADGTELTGTWTMEGNKLVGKFKRVDNGKELIAVREISGNELIQTYTYEGVEAKRIFKKE
modifications: acrylodan label
B3: 47G1, L72A (protein, UniProt P02693 2-132, looked up, variant F47G L72A)
Fatty acid-binding protein, …: AFDGTWKVDRNENYEKFMEKMGINVVKRKLGAHDNLKLTITQEGNKGTVKESSNFRNIDVVFELGVDFAYSAADGTELTGTWTMEGNKLVGKFKRVDNGKELIAVREISGNELIQTYTYEGVEAKRIFKKE
modifications: acrylodan label
B4: 11I1, L72A (protein, UniProt P02693 2-132, looked up, variant N11I L72A)
Fatty acid-binding protein, …: AFDGTWKVDRIENYEKFMEKMGINVVKRKLGAHDNLKLTITQEGNKFTVKESSNFRNIDVVFELGVDFAYSAADGTELTGTWTMEGNKLVGKFKRVDNGKELIAVREISGNELIQTYTYEGVEAKRIFKKE
modifications: acrylodan label
B5: 11S5, L72A (protein, UniProt P02693 2-132, looked up, variant N11S L72A)
Fatty acid-binding protein, …: AFDGTWKVDRSENYEKFMEKMGINVVKRKLGAHDNLKLTITQEGNKFTVKESSNFRNIDVVFELGVDFAYSAADGTELTGTWTMEGNKLVGKFKRVDNGKELIAVREISGNELIQTYTYEGVEAKRIFKKE
modifications: acrylodan label
B6: 40V1, L72A (protein, UniProt P02693 2-132, looked up, variant I40V L72A)
Fatty acid-binding protein, …: AFDGTWKVDRNENYEKFMEKMGINVVKRKLGAHDNLKLTVTQEGNKFTVKESSNFRNIDVVFELGVDFAYSAADGTELTGTWTMEGNKLVGKFKRVDNGKELIAVREISGNELIQTYTYEGVEAKRIFKKE
modifications: acrylodan label
B7: 11Q1, L72A (protein, UniProt P02693 2-132, looked up, variant N11Q L72A)
Fatty acid-binding protein, …: AFDGTWKVDRQENYEKFMEKMGINVVKRKLGAHDNLKLTITQEGNKFTVKESSNFRNIDVVFELGVDFAYSAADGTELTGTWTMEGNKLVGKFKRVDNGKELIAVREISGNELIQTYTYEGVEAKRIFKKE
modifications: acrylodan label
B8: 11F1, L72A (protein, UniProt P02693 2-132, looked up, variant N11F L72A)
Fatty acid-binding protein, …: AFDGTWKVDRFENYEKFMEKMGINVVKRKLGAHDNLKLTITQEGNKFTVKESSNFRNIDVVFELGVDFAYSAADGTELTGTWTMEGNKLVGKFKRVDNGKELIAVREISGNELIQTYTYEGVEAKRIFKKE
modifications: acrylodan label
B9: 11W1, L72A (protein, UniProt P02693 2-132, looked up, variant N11W L72A)
Fatty acid-binding protein, …: AFDGTWKVDRWENYEKFMEKMGINVVKRKLGAHDNLKLTITQEGNKFTVKESSNFRNIDVVFELGVDFAYSAADGTELTGTWTMEGNKLVGKFKRVDNGKELIAVREISGNELIQTYTYEGVEAKRIFKKE
modifications: acrylodan label
B10: 11D1, L72A (protein, UniProt P02693 2-132, looked up, variant N11D L72A)
Fatty acid-binding protein, …: AFDGTWKVDRDENYEKFMEKMGINVVKRKLGAHDNLKLTITQEGNKFTVKESSNFRNIDVVFELGVDFAYSAADGTELTGTWTMEGNKLVGKFKRVDNGKELIAVREISGNELIQTYTYEGVEAKRIFKKE
modifications: acrylodan label
B11: 47M2, L72A (protein, UniProt P02693 2-132, looked up, variant F47M L72A)
Fatty acid-binding protein, …: AFDGTWKVDRNENYEKFMEKMGINVVKRKLGAHDNLKLTITQEGNKMTVKESSNFRNIDVVFELGVDFAYSAADGTELTGTWTMEGNKLVGKFKRVDNGKELIAVREISGNELIQTYTYEGVEAKRIFKKE
modifications: acrylodan label
B12: 14Y, 72A wt (protein, UniProt P02693 2-132, looked up, variant L72A)
Fatty acid-binding protein, …: AFDGTWKVDRNENYEKFMEKMGINVVKRKLGAHDNLKLTITQEGNKFTVKESSNFRNIDVVFELGVDFAYSAADGTELTGTWTMEGNKLVGKFKRVDNGKELIAVREISGNELIQTYTYEGVEAKRIFKKE
modifications: acrylodan label
B13: 47C3, L72A (protein, UniProt P02693 2-132, looked up, variant F47C L72A)
Fatty acid-binding protein, …: AFDGTWKVDRNENYEKFMEKMGINVVKRKLGAHDNLKLTITQEGNKCTVKESSNFRNIDVVFELGVDFAYSAADGTELTGTWTMEGNKLVGKFKRVDNGKELIAVREISGNELIQTYTYEGVEAKRIFKKE
modifications: acrylodan label
B14: 47H1, L72A (protein, UniProt P02693 2-132, looked up, variant F47H L72A)
Fatty acid-binding protein, …: AFDGTWKVDRNENYEKFMEKMGINVVKRKLGAHDNLKLTITQEGNKHTVKESSNFRNIDVVFELGVDFAYSAADGTELTGTWTMEGNKLVGKFKRVDNGKELIAVREISGNELIQTYTYEGVEAKRIFKKE
modifications: acrylodan label

Columns and labels:
Assay type in all cases: binding
[1] = Probe fluorescence ratio response to palmitate:BSA complex, relative to ADIFAB2 (ΔR/ΔRAD2); details: for DR/DR PA: palmitate (PA), response relative to ADIFAB2
Protocol: (§1) The intensity ratio (“R” value) for a given probe is determined. The ratio is calculated using the following formula: R=Fλ1/Fλ2 wherein, Fλ1, is the measured fluorescence intensities (intensity of sample with probe present minus intensity of sample without probe present) at wavelength 1 and Fλ2 is the measured fluorescence intensities (intensity of sample with probe present minus intensity of sample without probe present) at wavelength 2. Then, for a given probe, ΔR, the difference in R value between the measurement in the presence of the analyte and in the absence of the analyte, is calculated as follows: ΔR=R+analyte−R0 The ΔR value for a given probe is then compared to a reference probe, for example, ADIFAB or ADIFAB2, by ΔR/ΔRreference. This value is an indication of how dissimilar the new probe (derived by mutation of the template) is to the reference. By this method, probes with new and useful characteristics may be identified. Measurements of fluorescence intensities are obtained using standard techniques.
(§2) Mutant probes were screened in 96-well plates by fluorescence response to five fatty acids: arachidonate, linolenate, linoleate, oleate, and palmitate. Each fatty acid was prepared as a complex with BSA by slow addition of 50 mM stocks of fatty acid sodium salts at pH 11 to 600 μM BSA in HEPES buffer. During the formation of complexes, 15 μL aliquots were periodically measured with the reference probe, ADIFAB2, to determine the ΔR value upon excitation at 375 nm and fluorescence emission at 550 and 457 nm using a Fluorolog-3 spectrofluorometer (Jobin Yvon) (Richieri et al, Molecular and Cellular Biochemistry (1999), 192:87-94 & Richieri et al, J. Biol. Chem. (1996), 271:31068-31074). Complexes were prepared such that the final ΔR was approximately 0.4 which correspond to [FFAu] ranging from 100 to 1000 nM depending on FFA type. These complexes buffer or clamp the FFAu levels at fixed values and therefore ensure the accurate comparison of different probes with the same FFAu concentrations. In contrast, addition of FFAu alone (i.e. uncomplexed FFA) introduces considerable uncertainty in comparing different probes because the FFAu level will be affected by binding to the dispensing device, the walls of the multi-well plates and to the probe itself. Thus, the terms “buffer” and “clamp” as used in this particular context herein are taken to mean the ability of a carrier macromolecule to complex with an unbound metabolite so that the unbound metabolite is presented accurately for measurement purposes and is prevented from non-specific binding such as binding to laboratory apparatus.
(§3) Plates were prepared and read in two stages. First, complexes and fatty acid free BSA were diluted to 6 μM BSA in HEPES and added to the 96-well plate at 300 μL per well. A MultiProbe II HT (Perkin Elmer) (an automated liquid handling system) was used to facilitate plate preparation for high throughput screening, but any automated or manual pipetting system will suffice. The background fluorescence was then measured at the same wavelengths as used for ADIFAB2 using a Fluorolog-3 spectrofluorometer with an external Micromax 384 fluorescence plate reader (Jobin Yvon). In the second stage, 30 μL aliquots of the mutant probes were added to multiple wells of the plate, one for each fatty acid and one with fatty acid free BSA only, and the fluorescence intensity at each wavelength was again measured on the plate reader. After subtraction of the background fluorescence, the fluorescence ratio of each well was calculated.
(§4) The fluorescence response was quantitatively compared to ADIFAB2 to search for changes in magnitude and fatty acid profile; for example the response to one fatty acid relative to another. For each probe the ratio differences (AR) between wells with each fatty acid compared to a corresponding well with fatty acid free BSA were recorded. […]

[2] = Probe fluorescence ratio response to linoleate:BSA complex, relative to ADIFAB2 (ΔR/ΔRAD2); details: linoleate (LA); response relative to ADIFAB2
Protocol: as §1, §2, §3, §4

[3] = Probe fluorescence ratio response to arachidonate:BSA complex, relative to ADIFAB2 (ΔR/ΔRAD2); details: arachidonate (AA); response relative to ADIFAB2
Protocol: as §1, §2, §3, §4

[4] = Probe fluorescence ratio response to linolenate:BSA complex, relative to ADIFAB2 (ΔR/ΔRAD2); details: linolenate (LNA); response relative to ADIFAB2
Protocol: as §1, §2, §3, §4

[5] = Probe fluorescence ratio response to oleate:BSA complex, relative to ADIFAB2 (ΔR/ΔRAD2); details: oleate (OA); response relative to ADIFAB2
Protocol: as §1, §2, §3, §4

Molecule	response to palmitic acid [1]	DR/DR LA [2]	DR/DR AA [3]	DR/DR PA [1]	DR/DR LNA [4]	DR/DR OA [5]
B1	does not respond to palmitic acid					
B2		0.90	0.89	0.80	0.99	0.90
B3		0.66	0.51	0.32	0.63	0.59
B4		0.55	0.58	1.19	0.51	0.39
B5		0.36	0.33	0.35	0.37	0.29
B6		1.24	1.20	0.91	1.28	1.21
B7		1.37	1.33	1.19	1.43	1.32
B8		0.28	0.42	0.18	0.29	0.20
B9		0.40	0.43	0.15	0.39	0.22
B10		0.91	0.82	0.83	0.86	0.92
B11		0.99	1.00	0.83	0.97	0.95
B12		1.23	1.29	1.07	1.29	2.22
B13		0.37	0.32	0.23	0.35	0.35
B14		0.74	0.63	0.43	0.70	0.67
